Experimental data published in US20030138894.

System: ACE-2 inhibitor peptide (the most active ACE-2 inhibitor peptide, Example 9)

Substance	hydrolysis of the substrate, hip his-leu (250 mM) by ACE (1.5 nM)	conversion of angiotensin I to A1-9 by ACE-2
Angiotensin converting enzyme (ACE)	the inhibitor did not affect the hydrolysis of the substrate, hip his-leu (250 mM) by ACE (1.5 nM), even at 25 mM	
recombinant human-ACE-2		This peptide also inhibited conversion of angiotensin I to A1-9 by ACE-2.
